Results as given in IntAct's records for PubMed 22345554.

B1: Bile acid receptor (Homo sapiens), Q96RI1 (parent)
chain: MVMQFQGLENPIQISPHCSCTPSGFFMEMMSMKPAKGVLTEQVAGPLGQNLEVEPYSQYSNVQFPQVQPQISSSSYYSNLGFYPQQPEEWYSPGIYELRRMPAETLYQGETEVAEMPVTKKPRMGASAGRIKGDELCVVCGDRASGYHYNALTCEGCKGFFRRSITKNAVYKCKNGGNCVMDMYMRRKCQECRLRKCKEMGMLAECMYTGLLTEIQCKSKRLRKNVKQHADQTVNEDSEGRDLRQVTSTTKSCREKTELTPDQQTLLHFIMDSYNKQRMPQEITNKILKEEFSAEENFLILTEMATNHVQVLVEFTKKLPGFQTLDHEDQIALLKGSAVEAMFLRSAEIFNKKLPSGHSDLLEERIRNSGISDEYITPMFSFYKSIGELKMTQEEYALLTAIVILSPDRQYIKDREAVEKLQEPLLDVLQKLCKIHQPENPQHFACLLGRLTELRTFNHHHAEMLMSWRVNDHKFTPLLCEIWDVQ
partner: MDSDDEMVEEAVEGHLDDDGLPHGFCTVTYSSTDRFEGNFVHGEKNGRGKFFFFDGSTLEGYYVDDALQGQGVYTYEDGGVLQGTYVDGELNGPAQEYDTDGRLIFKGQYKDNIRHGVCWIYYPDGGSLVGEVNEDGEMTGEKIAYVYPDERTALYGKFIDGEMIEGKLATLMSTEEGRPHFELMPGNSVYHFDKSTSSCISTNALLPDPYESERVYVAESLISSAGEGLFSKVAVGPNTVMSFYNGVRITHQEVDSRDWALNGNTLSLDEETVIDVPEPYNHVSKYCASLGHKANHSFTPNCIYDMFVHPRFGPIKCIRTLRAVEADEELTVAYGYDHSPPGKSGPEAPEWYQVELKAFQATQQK

Variants of: B1
Conditions: with setd7_human SETD7, Q8WTS6

effect of a mutation on the interaction | Variant
decreasing interaction | MVMQFQGLENPIQISPHCSCTPSGFFMEMMSMKPAKGVLTEQVAGPLGQNLEVEPYSQYSNVQFPQVQPQISSSSYYSNLGFYPQQPEEWYSPGIYELRRMPAETLYQGETEVAEMPVTKKPRMGASAGRIKGDELCVVCGDRASGYHYNALTCEGCKGFFRRSITKNAVYKCKNGGNCVMDMYMRRKCQECRLRKCKEMGMLAECMYTGLLTEIQCKSRRLRKNVKQHADQTVNEDSEGRDLRQVTSTTKSCREKTELTPDQQTLLHFIMDSYNKQRMPQEITNKILKEEFSAEENFLILTEMATNHVQVLVEFTKKLPGFQTLDHEDQIALLKGSAVEAMFLRSAEIFNKKLPSGHSDLLEERIRNSGISDEYITPMFSFYKSIGELKMTQEEYALLTAIVILSPDRQYIKDREAVEKLQEPLLDVLQKLCKIHQPENPQHFACLLGRLTELRTFNHHHAEMLMSWRVNDHKFTPLLCEIWDVQ [K220R]
